# The supplement of paper PMC10065799, “High-throughput profiling of sequence recognition by tyrosine kinases and SH2 domains using bacterial peptide display” (eLife, 2023)
# Molecular target: Hck (UniProt P08631)
# Assay: phosphorylation enrichment, bacterial display (enrichment ratio); higher = better substrate or ligand; peptides without Tyr show the background
# 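Also: 11-residue human phosphosite peptides and single-mutation variants displayed on the E. coli surface, counted by deep sequencing, each peptide's frequency after selection divided by its frequency in the unselected input library; frequency after pTyr selection over input frequency; kinase dosed for 20-30% of maximal phosphorylation in three min.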
# Chain of Hck (P08631 whole entry, looked up): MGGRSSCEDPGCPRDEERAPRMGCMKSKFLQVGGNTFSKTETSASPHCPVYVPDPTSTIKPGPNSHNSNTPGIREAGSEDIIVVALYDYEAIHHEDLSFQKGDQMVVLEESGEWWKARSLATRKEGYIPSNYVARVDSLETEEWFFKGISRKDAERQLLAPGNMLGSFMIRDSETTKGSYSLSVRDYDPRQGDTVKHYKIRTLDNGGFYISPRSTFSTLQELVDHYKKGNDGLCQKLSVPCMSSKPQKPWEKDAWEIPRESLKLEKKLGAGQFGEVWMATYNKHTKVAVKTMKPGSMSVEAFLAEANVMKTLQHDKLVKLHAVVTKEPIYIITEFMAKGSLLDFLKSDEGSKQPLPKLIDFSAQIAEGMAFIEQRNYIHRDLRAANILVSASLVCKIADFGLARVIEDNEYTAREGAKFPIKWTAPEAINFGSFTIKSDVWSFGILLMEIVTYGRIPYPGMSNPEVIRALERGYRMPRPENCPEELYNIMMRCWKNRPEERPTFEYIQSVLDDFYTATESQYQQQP
row,Sequence,phosphorylation enrichment
1,PAIFTYDEFKK [COL8A2_Y648_T645I_YF],1.66
2,PLTRSYIREKV [CYP2C8_Y243_A238P],0.312
3,TLMNAYSSCSH [KIF11_Y231_R234C],0.557
4,FLTQHHDAKPQ [ANG_Y38_Y38H],0.353
5,GAVDTYCRHNY [HLA-DRB1_Y107_A102G],0.475
6,EELLHYAIVTP [POC5_Y37],1.23
7,KLLPEYPGILS [DHFR2_Y163_V166I],0.419
8,EVEPTYVVLYD [ERCC4_Y577_R576T],3
9,ETEMLYGSARR [PRC1_Y464_P468R],4.55
10,EFISEFCGEII [EZH2_Y641_Y641F],0.518
11,MSLPGYKLVTG [GJA1_Y286_P283L],0.345
12,NKVKFYIPFMN [NCR1_Y84_D87Y_YF],0.436
13,KSSDVYVSYDY [SORL1_Y136],2.18
14,LSALDYKIFYY [WDPCP_Y210],0.499
15,ACCLLYRGDVV [TUBA4A_Y319],0.645
16,SSREGYVRHHN [FAM83B_Y433_S435R],0.387
17,MHLRQYKLLGG [GNAS_Y391_E392K],0.522

row,Sequence,phosphorylation enrichment
1,SVMAEYGLYAA [VSX2_Y219_G223A],7.6
2,LTTPTFGDLNH [TUBB_Y222_Y222F],0.308
3,PMQLPYDSTWE [PDGFRB_Y589],0.554
4,IEKLTYIDKWF [CPS1_Y872],0.492
5,RALRHYFKLNI [ETV6_Y401_YF],0.377
6,VFAANYFKLLG [ROR2_Y645_D644N_YF],0.526
7,MAQDIYRASYY [ALK_Y1278_R1275Q],2.54
8,MEFLPYGSLRD [JAK2_Y934_YF],2.29
9,SEDSEYFRAFE [CASQ2_Y178_K180R_YF],0.524
10,RVGNMYMRGLS [ABCG8_Y209_V210M],0.615
11,TSNQEYLDLSM [FGFR1_Y766],0.464
12,FRKNTYNVKST [SYNE2_Y575_I574T_YF],0.402
13,VKPENYRRLDI [VHL_Y175],0.331
14,KLASTYREAAT [DEAF1_Y483_H479L],0.318
15,IRTDAYVPAMT [RPE65_Y89_R91P],0.495
16,GLIPAYHRVIM [NMNAT1_Y64],0.543

# Molecular target: Jak2 (UniProt O60674)
# Assay: as above
# Chain of Jak2 (O60674 whole entry, looked up): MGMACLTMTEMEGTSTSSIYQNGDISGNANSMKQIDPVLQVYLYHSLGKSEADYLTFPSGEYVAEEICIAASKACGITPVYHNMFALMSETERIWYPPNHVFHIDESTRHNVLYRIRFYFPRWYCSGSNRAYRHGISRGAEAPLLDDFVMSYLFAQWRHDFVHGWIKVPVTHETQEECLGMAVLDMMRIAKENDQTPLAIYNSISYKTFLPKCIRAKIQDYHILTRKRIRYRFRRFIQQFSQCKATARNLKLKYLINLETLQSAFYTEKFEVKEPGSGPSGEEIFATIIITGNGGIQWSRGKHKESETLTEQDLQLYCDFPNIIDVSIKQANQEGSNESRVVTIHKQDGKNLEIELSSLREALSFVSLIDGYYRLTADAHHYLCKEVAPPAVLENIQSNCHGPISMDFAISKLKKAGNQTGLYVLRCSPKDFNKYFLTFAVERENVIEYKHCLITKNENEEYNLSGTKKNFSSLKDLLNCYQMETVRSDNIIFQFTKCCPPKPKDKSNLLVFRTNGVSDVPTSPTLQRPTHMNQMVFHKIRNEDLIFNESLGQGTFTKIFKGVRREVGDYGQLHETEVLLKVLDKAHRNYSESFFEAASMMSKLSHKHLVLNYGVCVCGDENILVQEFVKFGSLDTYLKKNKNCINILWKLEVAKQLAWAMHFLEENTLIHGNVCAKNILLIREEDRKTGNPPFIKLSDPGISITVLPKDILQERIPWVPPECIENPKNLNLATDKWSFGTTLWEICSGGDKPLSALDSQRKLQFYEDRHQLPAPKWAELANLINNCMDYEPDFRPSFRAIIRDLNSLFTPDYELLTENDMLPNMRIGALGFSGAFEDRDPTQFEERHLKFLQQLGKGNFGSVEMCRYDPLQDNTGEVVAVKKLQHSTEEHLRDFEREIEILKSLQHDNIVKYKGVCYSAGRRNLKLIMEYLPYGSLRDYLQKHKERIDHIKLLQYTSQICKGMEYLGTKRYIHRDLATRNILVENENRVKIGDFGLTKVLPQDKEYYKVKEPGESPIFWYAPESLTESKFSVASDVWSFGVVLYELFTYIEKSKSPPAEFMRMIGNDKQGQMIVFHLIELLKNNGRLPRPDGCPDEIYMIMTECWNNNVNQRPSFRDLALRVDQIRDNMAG
row,Sequence,phosphorylation enrichment
1,PAIFTYDEFKK [COL8A2_Y648_T645I_YF],1.12
2,PLTRSYIREKV [CYP2C8_Y243_A238P],0.591
3,TLMNAYSSCSH [KIF11_Y231_R234C],0.642
4,FLTQHHDAKPQ [ANG_Y38_Y38H],0.464
5,GAVDTYCRHNY [HLA-DRB1_Y107_A102G],0.708
6,EELLHYAIVTP [POC5_Y37],1.04
7,KLLPEYPGILS [DHFR2_Y163_V166I],0.739
8,EVEPTYVVLYD [ERCC4_Y577_R576T],1.1
9,ETEMLYGSARR [PRC1_Y464_P468R],0.521
10,EFISEFCGEII [EZH2_Y641_Y641F],1.44
11,MSLPGYKLVTG [GJA1_Y286_P283L],0.497
12,NKVKFYIPFMN [NCR1_Y84_D87Y_YF],0.824
13,KSSDVYVSYDY [SORL1_Y136],1.08
14,LSALDYKIFYY [WDPCP_Y210],1.29
15,ACCLLYRGDVV [TUBA4A_Y319],0.853
16,SSREGYVRHHN [FAM83B_Y433_S435R],0.672
17,MHLRQYKLLGG [GNAS_Y391_E392K],0.548

row,Sequence,phosphorylation enrichment
1,SVMAEYGLYAA [VSX2_Y219_G223A],0.579
2,LTTPTFGDLNH [TUBB_Y222_Y222F],0.609
3,PMQLPYDSTWE [PDGFRB_Y589],1.24
4,IEKLTYIDKWF [CPS1_Y872],0.817
5,RALRHYFKLNI [ETV6_Y401_YF],0.798
6,VFAANYFKLLG [ROR2_Y645_D644N_YF],5.33
7,MAQDIYRASYY [ALK_Y1278_R1275Q],0.61
8,MEFLPYGSLRD [JAK2_Y934_YF],0.798
9,SEDSEYFRAFE [CASQ2_Y178_K180R_YF],1.26
10,RVGNMYMRGLS [ABCG8_Y209_V210M],0.663
11,TSNQEYLDLSM [FGFR1_Y766],1.03
12,FRKNTYNVKST [SYNE2_Y575_I574T_YF],0.402
13,VKPENYRRLDI [VHL_Y175],0.298
14,KLASTYREAAT [DEAF1_Y483_H479L],0.309
15,IRTDAYVPAMT [RPE65_Y89_R91P],0.678
16,GLIPAYHRVIM [NMNAT1_Y64],1.16

# Molecular target: MERTK (UniProt Q12866)
# Assay: as above
# Chain of MERTK (Q12866 whole entry, looked up): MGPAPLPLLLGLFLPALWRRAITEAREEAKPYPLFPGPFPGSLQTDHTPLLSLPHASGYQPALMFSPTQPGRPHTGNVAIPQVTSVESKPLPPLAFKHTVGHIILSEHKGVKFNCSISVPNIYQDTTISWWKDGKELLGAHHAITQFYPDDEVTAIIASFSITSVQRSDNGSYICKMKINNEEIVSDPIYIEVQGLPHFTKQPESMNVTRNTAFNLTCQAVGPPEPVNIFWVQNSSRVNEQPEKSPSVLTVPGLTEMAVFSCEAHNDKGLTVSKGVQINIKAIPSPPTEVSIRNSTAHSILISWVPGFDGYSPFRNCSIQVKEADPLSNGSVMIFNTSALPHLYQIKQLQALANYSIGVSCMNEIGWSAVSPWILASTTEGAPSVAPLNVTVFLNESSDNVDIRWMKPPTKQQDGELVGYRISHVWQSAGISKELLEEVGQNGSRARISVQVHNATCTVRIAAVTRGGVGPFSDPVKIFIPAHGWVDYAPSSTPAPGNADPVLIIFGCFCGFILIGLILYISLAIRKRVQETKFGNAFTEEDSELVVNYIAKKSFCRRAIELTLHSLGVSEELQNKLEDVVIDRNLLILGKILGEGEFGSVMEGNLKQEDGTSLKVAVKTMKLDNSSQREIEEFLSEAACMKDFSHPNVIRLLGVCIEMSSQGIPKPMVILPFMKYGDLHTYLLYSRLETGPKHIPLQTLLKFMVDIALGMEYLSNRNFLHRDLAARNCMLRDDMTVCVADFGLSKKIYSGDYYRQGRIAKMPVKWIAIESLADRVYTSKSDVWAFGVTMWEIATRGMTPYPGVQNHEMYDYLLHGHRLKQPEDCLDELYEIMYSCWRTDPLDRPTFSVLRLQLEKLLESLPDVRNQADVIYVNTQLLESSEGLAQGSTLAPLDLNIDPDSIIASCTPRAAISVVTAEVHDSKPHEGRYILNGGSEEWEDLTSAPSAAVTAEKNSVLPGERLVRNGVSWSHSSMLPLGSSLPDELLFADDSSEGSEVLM
row,Sequence,phosphorylation enrichment
1,PAIFTYDEFKK [COL8A2_Y648_T645I_YF],0.594
2,PLTRSYIREKV [CYP2C8_Y243_A238P],0.406
3,TLMNAYSSCSH [KIF11_Y231_R234C],0.496
4,FLTQHHDAKPQ [ANG_Y38_Y38H],0.44
5,GAVDTYCRHNY [HLA-DRB1_Y107_A102G],0.443
6,EELLHYAIVTP [POC5_Y37],5.76
7,KLLPEYPGILS [DHFR2_Y163_V166I],0.376
8,EVEPTYVVLYD [ERCC4_Y577_R576T],3.54
9,ETEMLYGSARR [PRC1_Y464_P468R],0.38
10,EFISEFCGEII [EZH2_Y641_Y641F],0.638
11,MSLPGYKLVTG [GJA1_Y286_P283L],0.364
12,NKVKFYIPFMN [NCR1_Y84_D87Y_YF],0.482
13,KSSDVYVSYDY [SORL1_Y136],1.97
14,LSALDYKIFYY [WDPCP_Y210],0.365
15,ACCLLYRGDVV [TUBA4A_Y319],0.709
16,SSREGYVRHHN [FAM83B_Y433_S435R],0.409
17,MHLRQYKLLGG [GNAS_Y391_E392K],0.412

row,Sequence,phosphorylation enrichment
1,SVMAEYGLYAA [VSX2_Y219_G223A],2.4
2,LTTPTFGDLNH [TUBB_Y222_Y222F],0.442
3,PMQLPYDSTWE [PDGFRB_Y589],0.573
4,IEKLTYIDKWF [CPS1_Y872],0.385
5,RALRHYFKLNI [ETV6_Y401_YF],0.4
6,VFAANYFKLLG [ROR2_Y645_D644N_YF],1.13
7,MAQDIYRASYY [ALK_Y1278_R1275Q],0.791
8,MEFLPYGSLRD [JAK2_Y934_YF],0.388
9,SEDSEYFRAFE [CASQ2_Y178_K180R_YF],0.476
10,RVGNMYMRGLS [ABCG8_Y209_V210M],0.697
11,TSNQEYLDLSM [FGFR1_Y766],0.437
12,FRKNTYNVKST [SYNE2_Y575_I574T_YF],0.473
13,VKPENYRRLDI [VHL_Y175],0.337
14,KLASTYREAAT [DEAF1_Y483_H479L],0.344
15,IRTDAYVPAMT [RPE65_Y89_R91P],0.367
16,GLIPAYHRVIM [NMNAT1_Y64],0.408

# Tested on: c-Abl (mouse)
# Assay: as above
row,Sequence,phosphorylation enrichment
1,PAIFTYDEFKK [COL8A2_Y648_T645I_YF],1.03
2,PLTRSYIREKV [CYP2C8_Y243_A238P],0.305
3,TLMNAYSSCSH [KIF11_Y231_R234C],0.597
4,FLTQHHDAKPQ [ANG_Y38_Y38H],0.552
5,GAVDTYCRHNY [HLA-DRB1_Y107_A102G],0.755
6,EELLHYAIVTP [POC5_Y37],1.56
7,KLLPEYPGILS [DHFR2_Y163_V166I],0.627
8,EVEPTYVVLYD [ERCC4_Y577_R576T],0.864
9,ETEMLYGSARR [PRC1_Y464_P468R],0.638
10,EFISEFCGEII [EZH2_Y641_Y641F],1.22
11,MSLPGYKLVTG [GJA1_Y286_P283L],0.348
12,NKVKFYIPFMN [NCR1_Y84_D87Y_YF],0.699
13,KSSDVYVSYDY [SORL1_Y136],0.712
14,LSALDYKIFYY [WDPCP_Y210],0.787
15,ACCLLYRGDVV [TUBA4A_Y319],0.482
16,SSREGYVRHHN [FAM83B_Y433_S435R],0.451
17,MHLRQYKLLGG [GNAS_Y391_E392K],0.478

row,Sequence,phosphorylation enrichment
1,SVMAEYGLYAA [VSX2_Y219_G223A],0.799
2,LTTPTFGDLNH [TUBB_Y222_Y222F],0.612
3,PMQLPYDSTWE [PDGFRB_Y589],1.12
4,IEKLTYIDKWF [CPS1_Y872],0.619
5,RALRHYFKLNI [ETV6_Y401_YF],0.594
6,VFAANYFKLLG [ROR2_Y645_D644N_YF],0.73
7,MAQDIYRASYY [ALK_Y1278_R1275Q],7.45
8,MEFLPYGSLRD [JAK2_Y934_YF],0.692
9,SEDSEYFRAFE [CASQ2_Y178_K180R_YF],1.31
10,RVGNMYMRGLS [ABCG8_Y209_V210M],0.453
11,TSNQEYLDLSM [FGFR1_Y766],1.02
12,FRKNTYNVKST [SYNE2_Y575_I574T_YF],0.609
13,VKPENYRRLDI [VHL_Y175],0.345
14,KLASTYREAAT [DEAF1_Y483_H479L],0.432
15,IRTDAYVPAMT [RPE65_Y89_R91P],0.594
16,GLIPAYHRVIM [NMNAT1_Y64],0.662
